This note sets out measurements from patent publication US20210032664, “ENGINEERED MEGANUCLEASES WITH RECOGNITION SEQUENCES FOUND IN THE HUMAN BETA-2 MICROGLOBULIN GENE” (Precision Biosciences, Inc., published 2021).

Numbering of substitutions follows the chain as printed. In names and notes the source's numbering stands.

Common to all, as to test: cell_activity; human T cells, 1 ug mRNA, day 3
Common to all, as to details: tags: N-terminal SV40 NLS

One data set concerns the target T1, B2M 13-14x.371 (Artificial Sequence).
T1 chain: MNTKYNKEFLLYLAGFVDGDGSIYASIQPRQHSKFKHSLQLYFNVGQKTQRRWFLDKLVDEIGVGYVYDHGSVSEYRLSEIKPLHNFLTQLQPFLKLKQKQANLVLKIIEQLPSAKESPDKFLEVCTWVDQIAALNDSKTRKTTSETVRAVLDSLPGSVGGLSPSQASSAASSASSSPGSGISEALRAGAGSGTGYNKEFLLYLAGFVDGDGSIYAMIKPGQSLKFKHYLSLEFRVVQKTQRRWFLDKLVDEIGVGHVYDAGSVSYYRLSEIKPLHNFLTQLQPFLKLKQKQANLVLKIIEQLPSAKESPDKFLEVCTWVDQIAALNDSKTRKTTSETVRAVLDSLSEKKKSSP
How it is done: (§1) Donor human T cells were stimulated with anti-CD3 and anti-CD28 antibodies for 3 days, then electroporated with mRNA encoding a given B2M 13-14 meganuclease (1 μg) using the Amaxa 4D-Nucleofector (Lonza) according to the manufacturer's instructions. To look for the loss of B2M surface expression, cells were stained with an antibody recognizing β-2 microglobulin (BD Biosciences) as well as an antibody recognizing CD3 (BioLegend), a marker of T cells.

The target of the next data set is T2, B2M 13-14x.465 (Artificial Sequence).
T2 chain: T1 chain with H32A, S33A, S38T, M217S, S223C, Y229A, S231Y, V237T, A261T, Y266D
The protocol: as §1

The next data set deals with T3, B2M 13-14x.325 (Artificial Sequence).
T3 chain: T1 chain with M217S, G221S, S223A, Y229S, S231A, V237F, A261T, Y266D
How it is done: as §1

Another data set addresses T4, B2M 13-14x.338 (Artificial Sequence).
T4 chain: T1 chain with M217S, G221R, S223D, Y229C, S231F, V237S, A261T, Y266D
How it is done:
as §1

For the next data set, the target named is T5, B2M 13-14x.556 (Artificial Sequence).
T5 chain: T1 chain with H32R, M217G, G221R, Y229G, S231T, V237A, A261F, Y266E
The protocol:
as §1

The target of another data set is T6, B2M 13-14x.317 (Artificial Sequence).
T6 chain: T1 chain with M217S, G221Y, S223T, S231F, V237Y, A261T, Y266E
How it is done:
as §1

For another data set, the target named is T7, B2M 13-14x.281 (Artificial Sequence).
T7 chain: T1 chain with M217S, G221S, S223Q, Y229Q, V237C, Y266E
How it is done:
as §1

B1: B2M 13-14 recognition sequence (dsDNA)
DNA 1: CTATCTCTTGTACTACACTGAA
DNA 2: TTCAGTGTAGTACAAGAGATAG
Turning to B1, the activity with B2M 13-14x.371 worked out at 22.6 % B2M-negative; with B2M 13-14x.465, 30.8 % B2M-negative; with B2M 13-14x.325, 14.4 % B2M-negative; in the data set with B2M 13-14x.338, 4.68 % B2M-negative; in the data set with B2M 13-14x.556, 11.8 % B2M-negative; in the data set with B2M 13-14x.317 it was 3.91 % B2M-negative. For the same molecule, the activity with B2M 13-14x.281 was determined as 53.6 % B2M-negative.
